This is an account of results in publication PMC12051786, “Photoisomerization of Azobenzene‐Extended Charybdotoxin for the Optical Control of Kv1.2 Potassium Channel Activity” (Angewandte Chemie (International Ed. in English), 2025).

Data set [1] addresses mouse Kv1.2 channel (mouse) (UniProt P63141).
Data set [2] has the same target. This is another data set of the same source.
Data set [3] is described as follows: Thermal stability of the cis isomer in the dark. Conditions: Figure S3.
Data set [4] can be described thus: Photo-isomerization kinetics (trans/cis) followed by absorbance under illumination. The following applies: 9.5 mW cm−2, 100% DMSO. The data set is classed as physicochemical. An excerpt: Next, we evaluated for all monomers and dimers the trans‐cis isomerization reactions under various wavelengths of illumination. Illuminating the ChTx‐Ah^14‐Az1 monomer at λ = 365 nm at 9.5 mW cm^−2, to favor the cis configuration, yielded a significant time‐dependent change in the absorbance properties of the peptide, characterized by a decrease of the absorbance band maximum centered at 340 nm (Figure 4a).

Sequence of mouse Kv1.2 channel (mouse) (P63141 whole entry): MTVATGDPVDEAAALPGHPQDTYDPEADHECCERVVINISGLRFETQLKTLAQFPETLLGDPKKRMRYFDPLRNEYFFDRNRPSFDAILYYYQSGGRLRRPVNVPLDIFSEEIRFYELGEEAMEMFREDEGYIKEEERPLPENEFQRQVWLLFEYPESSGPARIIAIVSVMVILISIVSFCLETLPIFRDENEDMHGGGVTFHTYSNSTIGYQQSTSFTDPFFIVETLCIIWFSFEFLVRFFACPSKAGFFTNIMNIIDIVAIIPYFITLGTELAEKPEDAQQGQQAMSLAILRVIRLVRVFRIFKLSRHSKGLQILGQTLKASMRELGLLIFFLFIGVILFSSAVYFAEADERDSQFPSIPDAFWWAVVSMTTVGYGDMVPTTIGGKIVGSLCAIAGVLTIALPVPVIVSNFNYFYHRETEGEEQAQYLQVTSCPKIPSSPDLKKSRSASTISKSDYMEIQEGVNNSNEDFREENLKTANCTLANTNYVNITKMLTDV
Sequence of charybdotoxin (P13487 23-59): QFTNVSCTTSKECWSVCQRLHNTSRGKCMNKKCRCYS
Sequence of ChTx‐Ah^12 (P13487 whole entry, looked up): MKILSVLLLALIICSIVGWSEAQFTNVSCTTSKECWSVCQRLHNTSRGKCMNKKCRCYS
Sequence of ChTx‐Ah^9 (P13487 whole entry, looked up): as above

In turn, “charybdotoxin (from UniProt P13487 23-59) (peptide)” yielded an IC50 of inhibition of K+ current, L929 cells stably overexpressing mouse Kv1.2, automated patch-clamp in data set [1] of 5 nM. In data set [2], this molecule gave a percent block of Kv1.2 current at 10 nM peptide, patch-clamp of 62.2%.

The molecule “ChTx‐Ah^9 (from UniProt P13487 23-59) (peptide)” gave an IC50 of inhibition of K+ current, L929 cells stably overexpressing mouse Kv1.2, automated patch-clamp in data set [1] of 6.3 nM.

With `C#CCNC(=O)c1ccc(/N=N/c2ccc(C(=O)NCC#C)cc2)cc1` [Az1, (E)‐4,4′‐(diazene‐1,2‐diyl)bis(N‐(prop‐2‐yn‐1‐yl)benzamide)], in data set [3], the “Thermal stability of the cis isomer” value is given as “remarkably stable”. The “Time at which formation of the cis isomer saturates” value in data set [4] (irradiation at 340 nm) came out at 300 s. Moreover, in data set [4] (irradiation at 435 nm), the “Time for recovery of trans-enriched compound on reverse-switching” value was “≈ 60 s”.

For the molecule “ChTx‐Ah^14 (from UniProt P13487 23-59) (peptide)”, in data set [1], the IC50 of inhibition of K+ current, L929 cells stably overexpressing mouse Kv1.2, automated patch-clamp was 9.8 nM. Moreover, in data set [2], the percent block of Kv1.2 current at 10 nM peptide, patch-clamp worked out at 52%.

In data set [1], “ChTx‐Ah^19 (from UniProt P13487 23-59) (peptide)” gave an IC50 of inhibition of K+ current, L929 cells stably overexpressing mouse Kv1.2, automated patch-clamp of 11.5 nM.

With “ChTx‐Ah^12 (from UniProt P13487 23-59) (peptide)”, the IC50 of inhibition of K+ current, L929 cells stably overexpressing mouse Kv1.2, automated patch-clamp in data set [1] worked out at 1.2 nM.
